In article PMC7870818, “SPRTN protease-cleaved MRE11 decreases DNA repair and radiosensitises cancer cells” one finds Kd data, which are given here for one molecule.

In one series the target is T1, TR-MRE11 (human, UniProt P49959 1-568, del569-708).
T1 sequence: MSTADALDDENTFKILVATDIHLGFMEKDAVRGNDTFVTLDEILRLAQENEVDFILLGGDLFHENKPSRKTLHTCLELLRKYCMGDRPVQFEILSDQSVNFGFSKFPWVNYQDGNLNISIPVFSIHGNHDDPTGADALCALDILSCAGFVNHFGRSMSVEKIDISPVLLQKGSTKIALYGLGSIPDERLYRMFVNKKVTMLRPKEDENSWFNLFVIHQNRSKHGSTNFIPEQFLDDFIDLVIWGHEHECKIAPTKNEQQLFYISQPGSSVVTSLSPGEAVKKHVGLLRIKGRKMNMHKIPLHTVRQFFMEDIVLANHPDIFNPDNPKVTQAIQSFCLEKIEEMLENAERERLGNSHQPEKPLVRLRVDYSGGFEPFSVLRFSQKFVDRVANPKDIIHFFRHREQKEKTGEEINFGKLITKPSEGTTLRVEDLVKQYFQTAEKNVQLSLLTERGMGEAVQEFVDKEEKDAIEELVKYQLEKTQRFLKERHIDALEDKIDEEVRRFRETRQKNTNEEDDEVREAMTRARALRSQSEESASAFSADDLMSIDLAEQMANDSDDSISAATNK
Nature of the series: fluorescence polarization; no metal listed in buffer; apparent Kd, n=1; 7-fold lower affinity than FL; 10 mM Tris pH 8.0, 25 mM NaCl, 0.1% Tween20, 2 mM DTT; 10 nM DNA; temperature not stated, measured immediately. To be noted: protein: recombinant; tags: His-SUMO tag removed by SUMO protease; chain copies: 2; label: 5' FITC on TP423; 34 bp duplex (S1[1-34] with S2[1-34]); 3' overhangs 16 nt (S1) and 15 nt (S2). (In fluorescence polarisation assays a small probe gives low polarisation when free and higher when bound to something large.)

The next series deals with T2, FL-MRE11 (human, UniProt P49959 1-708).
T2 sequence: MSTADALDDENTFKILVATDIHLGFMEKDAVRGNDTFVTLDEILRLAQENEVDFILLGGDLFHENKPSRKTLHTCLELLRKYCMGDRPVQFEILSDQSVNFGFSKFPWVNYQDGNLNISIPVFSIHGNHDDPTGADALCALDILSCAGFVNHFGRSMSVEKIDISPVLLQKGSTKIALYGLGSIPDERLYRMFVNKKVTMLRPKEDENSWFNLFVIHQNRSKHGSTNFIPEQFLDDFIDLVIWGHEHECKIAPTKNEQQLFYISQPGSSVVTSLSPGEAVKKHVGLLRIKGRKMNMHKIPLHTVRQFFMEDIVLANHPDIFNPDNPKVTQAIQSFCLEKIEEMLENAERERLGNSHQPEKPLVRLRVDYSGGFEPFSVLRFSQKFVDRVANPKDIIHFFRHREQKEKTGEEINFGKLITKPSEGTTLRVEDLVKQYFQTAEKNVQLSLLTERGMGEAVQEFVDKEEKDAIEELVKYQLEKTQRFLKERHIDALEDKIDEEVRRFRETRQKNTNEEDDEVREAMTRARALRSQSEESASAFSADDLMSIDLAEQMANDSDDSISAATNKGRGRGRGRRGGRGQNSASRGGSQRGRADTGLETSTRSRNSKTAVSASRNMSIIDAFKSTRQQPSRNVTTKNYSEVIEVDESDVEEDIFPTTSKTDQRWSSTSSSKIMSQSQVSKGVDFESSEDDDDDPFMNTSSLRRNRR
As to the kind of experiment: fluorescence polarization; no metal listed in buffer; apparent Kd, n=1; 10 mM Tris pH 8.0, 25 mM NaCl, 0.1% Tween20, 2 mM DTT; 10 nM DNA; temperature not stated, measured immediately. To be noted: protein: recombinant; tags: His tag (pNIC28-Bsa4), TEV protease treated; chain copies: 2; label: 5' FITC on TP423; 34 bp duplex (S1[1-34] with S2[1-34]); 3' overhangs 16 nt (S1) and 15 nt (S2).

B1: TP423/TP424 3'-overhang duplex (dsDNA)
DNA 1: CTGCAGGGTTTTTGTTCCAGTCTGTAGCACTGTGTAAGACAGGCCAGATC
DNA 2: CACAGTGCTACAGACTGGAACAAAAACCCTGCAGTACTCTACTCATCTC
Regarding B1, the Kd is 242 nM in the series with TR-MRE11 and 34.6 nM with FL-MRE11.
